# Publication PMC2657470 (Biochemical and biophysical research communications, 2009)
# Like-named read-outs stand apart in the source and are kept apart here.
# B1: Phos15739 (Drosophila melanogaster) (protein)
# chain: MAKPQHILQLSQEQRSSVVDSFDRVVSDIDGVLWTFEQSIPRAADGYAALEQMGKHLTFLTNNSVRTSEQCVKLFAKIGMQVHPEQIWHPAKSIVSYLQSIKFEGLIYIIASQSFKTVLREAGFQLLDGPNEFIEESYASLAEHIFGKEPVRAVIIDVDFNLTSPKILRAHLYLRHPECMLIEGATDRLLPVAKEVNIVGPGAFASILVEASGKQPITLGKPGRELGDLLVEHYQIVQPSRVLMIGDMLAQDVSFGRQCGFQTLLVLSGGCSKEELLAETDPQRIPDYYADSVADVAQMLGEAPKSRV
# B2: Phos2680 (Drosophila melanogaster) (protein)
# chain: MSPPRHILKLSLEEQRQFIDSFDLVISDCDGVVWLLVGWIPNTGAAVNALKAAGKQIKFVSNNSFRSEEDYMEKFRHIGAKNVQEDDIVHPVKTIVRYLKKHKPGERVYSLMSLEANETLRKHNIEFESLQVKEHLTAASLVDHLAIEKPVGAVLFDIHLDLSYVELAKAIRHLQENDDCQLIAGGSDVIMPLAENLNVAGFFDFLEHVKRYTQREATFLGKPSPILGEMFGEMFEIRDCKRCIFIGDTLVQDVQFGKACGFQSLLVLSGCLTKEDMLNAPVEAQPDYYADSLADFTQLLENIQK
# How the values were obtained:
# Phos15739 [1] = biological target: T1, Phos15739 (Drosophila melanogaster, UniProt Q9VYT0); assay: In vitro inhibition of Phos15739, p-NPP as substrate; conditions: for inhibitor quality for Phos15739 (in words): p-NPP as substrate
# [2] = biological target: hsEH N-terminal phosphatase; conditions: cited from earlier work
# Phos2680 = Phos2680 (Drosophila melanogaster, UniProt Q9W4W5); assay: In vitro inhibition of Phos2680, p-NPP as substrate
# Phos15739 [3] = biological target: T1, Phos15739; type: biochemical, D. melanogaster; conditions: for substrate quality for Phos15739 (in words): isoprenoid mono- and pyrophosphate substrates
# Phos15739D28A = assay: Enzymatic activity of variant Phos15739D28A with p-NPP and FPP; type: biochemical, D. melanogaster; conditions: same reaction conditions as positive control Phos15739; data not shown
# [4] = test system: N-terminal domain of hsEH; conditions: FPP as substrate of N-terminal domain of hsEH; ref [8]; cited from earlier work
# [5] = substrate: O=[N+]([O-])c1ccc(OP(=O)(O)O)cc1; assay: p-NPP phosphatase activity of Phos15739; type: biochemical, D. melanogaster; conditions: other: p-NPP as substrate of Phos15739, pH 6.0, 2 mM Mg2+
# [6] = substrate: CC(C)=CCC/C(C)=C/CC/C(C)=C/COP(=O)(O)O; assay: purified protein, by the assay type; type: biochemical, D. melanogaster; conditions: other: substrate of Phos15739; IPP, GPP, FPP values are apparent kinetics
# [7] = substrate: CC(C)=CCC/C(C)=C/COP(=O)(O)O; assay: purified protein, by the assay type; type: biochemical, D. melanogaster; conditions: other: substrate of Phos15739; IPP, GPP, FPP values are apparent kinetics
# [8] = substrate: C=C(C)CCO[P@@](=O)(O)OP(=O)(O)O; assay: purified protein, by the assay type; type: biochemical, D. melanogaster; conditions: other: substrate of Phos15739; IPP, GPP, FPP values are apparent kinetics
# [9] = substrate: C=C(C)CCOP(=O)(O)O; assay: purified protein, by the assay type
# [10] = substrate: CC(C)=CCC/C(C)=C/CC/C(C)=C/CO[P@@](=O)(O)OP(=O)(O)O; assay: purified protein, by the assay type; conditions: other: substrate of Phos15739; IPP, GPP, FPP values are apparent kinetics
# [11] = substrate: O=[N+]([O-])c1ccc(OP(=O)(O)O)cc1; assay: p-NPP phosphatase activity of Phos2680; type: biochemical, D. melanogaster; conditions: other: p-NPP as substrate of Phos2680, pH 6.0, 2 mM Mg2+
# [12] = substrate of Phos15739, IPP, GPP, FPP values are apparent kinetics
# [13] = other: substrate of Phos15739, IPP, GPP, FPP values are apparent kinetics
molecule,measurement,setting,value
"C[C@H](CCC(=O)NCCS(=O)(=O)O)[C@H]1CC[C@H]2[C@@H]3CC[C@@H]4C[C@H](OS(=O)(=O)O)CC[C@]4(C)[C@H]3CC[C@]12C [Taurolithocholic acid 3-sulfate, taurolithocholic acid 3-sulfate]",IC50,Phos15739 [1],> 100 µM
same,inhibitor quality for Phos15739 (in words),Phos15739 [1],poor inhibitors
same,IC50,[2]; ref [12],5 µM
same,IC50,Phos2680,> 100 µM
CC(C)=CCC/C(C)=C/COP(=O)(O)OP(=O)(O)O [GPP],substrate quality for Phos15739 (in words),Phos15739 [3],weak substrates
same,Kcat (s^−1±S.E.),Phos15739 [3]; [12],0.78 ± 0.09 s⁻¹
same,Vmax (μmol.min^−1mg^−1±S.E.),Phos15739 [3]; [12],1.4 ± 1.5 µmol/min/mg
CC(C)=CCC/C(C)=C/CC/C(C)=C/CC/C(C)=C/COP(=O)(O)O [GGMP],substrate quality for Phos15739 (in words),Phos15739 [3],not good substrates
"CC(C)=CCC/C(C)=C/CC/C(C)=C/CC/C(C)=C/COP(=O)(O)OP(=O)(O)O [GGPP, Geranylgeranyl pyrophosphate]",substrate quality for Phos15739 (in words),Phos15739 [3],not good substrates
C=C(C)CCOP(=O)(O)OP(=O)(O)O [IPP],substrate quality for Phos15739 (in words),Phos15739 [3],weak substrates
"O=[N+]([O-])c1ccc(OP(=O)(O)O)cc1 [p-NPP, para-nitrophenyl phosphate]",enzymatic activity of Phos15739D28A with substrate,Phos15739D28A,No activity was detected
CC(=O)N[C@@H](CSC/C=C(\C)CC/C=C(\C)CCC=C(C)C)C(=O)O [N-acetyl-S-farnesyl-L-cysteine],IC50,Phos15739 [1],28 ± 6.8 µM
same,IC50,[2]; ref [8],0.84 µM
same,IC50,Phos2680,> 100 µM
CC(C)=CCC/C(C)=C/CC/C(C)=C/CSCC(=O)O [S-Farnesyl-thioacetic acid],IC50,Phos15739 [1],> 100 µM
same,inhibitor quality for Phos15739 (in words),Phos15739 [1],poor inhibitors
same,IC50,Phos2680,5.1 ± 1.4 µM
"CC(C)=CCC/C(C)=C/CC/C(C)=C/COP(=O)(O)OP(=O)(O)O [FPP, farnesyl pyrophosphate]",turnover number,[4],0.25 ± 0.07 s⁻¹
same,enzymatic activity of Phos15739D28A with substrate,Phos15739D28A,No activity was detected
CC(=O)N[C@@H](CSC/C=C(\C)CCC=C(C)C)C(=O)O [N-acetyl-S-geranyl-L-cysteine],IC50,Phos15739 [1],6.3 ± 1.7 µM
same,IC50,Phos2680,> 100 µM
CC(=O)N[C@@H](CSC/C=C(\C)CC/C=C(\C)CC/C=C(\C)CCC=C(C)C)C(=O)O [N-acetyl-S-geranylgeranyl-L-cysteine],IC50,Phos15739 [1],4.4 ± 2 µM
same,IC50,Phos2680,14 ± 1.9 µM
B1,Km,[5],240 µM
same,Vmax,[5],6.1 µmol/min/mg
same,Km,[6],160 ± 20 µM
same,Vmax,[6],85 ± 4.2 µmol/min/mg
same,kcat,[6],49 ± 2.4 s⁻¹
same,kcat/Km,[6],310000 M⁻¹ s⁻¹
same,Km,[7],81 ± 6.7 µM
same,Vmax,[7],250 ± 9.3 µmol/min/mg
same,kcat,[7],140 ± 5.3 s⁻¹
same,kcat/Km,[7],1.8e+06 M⁻¹ s⁻¹
same,Km,[8],430 ± 150 µM
same,Vmax,[8],2.1 ± 0.39 µmol/min/mg
same,kcat,[8],1.2 ± 0.22 s⁻¹
same,kcat/Km,[8],2700 M⁻¹ s⁻¹
same,Km,[9]; [13],84 ± 27 µM
same,Vmax,[9]; [13],18 ± 2.7 µmol/min/mg
same,kcat,[9]; [13],10 ± 1.5 s⁻¹
same,kcat/Km,[9]; [13],120000 M⁻¹ s⁻¹
same,Km,[10],48 ± 13 µM
same,Vmax,[10],18 ± 1.8 µmol/min/mg
same,kcat,[10],10 ± 1.04 s⁻¹
same,kcat/Km,[10],2.1 X 10^5 M^−1 s^−1
B2,Km,[11],640 µM
same,Vmax,[11],36 µmol/min/mg
same,Km,[9]; other: substrate of Phos2680,35 µM
same,Vmax,[9]; other: substrate of Phos2680,59 µmol/min/mg
